Test results: PMC2867956, “Interdomain Interactions Control Ca^2+-Dependent Potentiation in the Cation Channel TRPV4” (PLoS ONE, 2010)

Tested on: CFP-fused N1
Assay: FRET acceptor bleaching, N1/C1 interaction in HEK293 cells
Type: cell-based, human
Details: YFP-fused C1 and CFP-fused N1 coexpressed in HEK293 cells
Text: (See Methods S1 for details).

B1: C1: full-length TRPV4 C terminus, residues 721-871 (protein, UniProt Q9HBA0 721-871, looked up, fragment)
chain: TVGQVSKESKHIWKLQWATTILDIERSFPVFLRKAFRSGEMVTVGKSSDGTPDRRWCFRVDEVNWSHWNQNLGIINEDPGKNETYQYYGFSHTVGRLRRDRWSSVVPRVVELNKNSNPDEVVVPLDSMGNPRCDGHQQGYPRKWRTDDAPL
  FRET interaction of N1 and C1: interact
